Test: soluble on expression in E. coli; label from the status in PepcDB or PDB records

Sequence	soluble on expression in E. coli
MGSDKIHHHHHHMIDLKQYEFWFLVGSQYLYGLETLKKVEQQASKIVDSLNDDPIFPSKIVLKPVLKSSSEITEIFEKANADPKCAGVIVWMHTFSPSKMWIRGLSINKKPLLHLHTQYNREIPWDTIDMDYMNLNQSAHGDREHGFIHARMRLPRKVVVGHWEEKEVREKIAKWMRVACAIQDGRMGQIVRFGDNMREVASTEGDKVEAQIKLGWSINTWGVGELAERVKAVPEREVEELLKEYREKYIMPEDEYSLKAIREQAKIEIALREFLKEKNAVGFTTTFEDLHDLPQLPGLAVQRLMEEGYGFGAEGDWKAAGLVRAIKVMGTSLPGGTSFMEDYTYHLTPGNELVLGAHMLEVCPTIAKEKPRIEVHPLSIGGKADPARLVFDGQEGPAVNASIVDMGNRFRLVVNKVLSVPIERKMPKLPTARVLWKPLPDFKRATTAWILAGGSHHTAFSTAIDVEYLIDWAEALEIEYVVIDENLDLEDFKKELRWNELYWGLLKR	not soluble
MTKVSIIVPVYNTKNYVPRLLTSIEKQTYTNWELILVDDHSNDGTYELLLEFKDRYPNKVEVLKTPKPRSGPMIGKNMGIEVSSGKFLAFVDSDDWWSETFLKDTVSNIKSFGGVSTEYYDVFEDSDKKVHVKASKHGVVSWEDVLKLKARFGNGNSLLRRKIVENYGIRFPEHLWYSEDIYFYTQYLSVIDRIYVVPSPDFYHLVRGASMVRSDKIKQESKIEQTIRVYEEVCTRIQEISKVSDEVCKLLKSYQMPYSIMTYITSVSDSLGRAEARKLFWKYLDYLKGYRLTRSHQSYLTLLWILDLFIPIRGILRRLIGLEHHHHHH	soluble
MGSDKIHHHHHHMIKSISTGRTQQGYFSPVEKQMFGAALLADPDTSSPFSDVLSIAESGCSSSLLQQLTSVTKRFRHLKPEQYLLRQQDQFDSLFVVKKGALKSYRLTPEGEEIVTGFYMEGDVIGAGGLGNHKHFYSVVALEPSSLYEIPFAKLLQQSAMEPIVQQLMLKLLSQEMQADQSLRLIQLKQVKAAIASLILNIANRLTATQITLPMSRVDIANLLGVASETVCREFTRLQKQGLLSVNRKHIVINDLPQLQLAAGGDCY	not soluble
MAHHHHHHMPNDTLQVKLSQDSLFFPLPFTNATIDNVVQVKNMLPVVQGDPKANVISFKILSRVQNRYSVHPPVGFIGAGEHATIIFSFNPEHVKMAKNPEERELPTEATKDAIHVDFAVVDAPSVQTALAHWVPGSKETKASWEVVADASRFWKQRGQVKENSPITMRYKLRCVFATRNNVPDSLVMCMKEEGGCCKLITDGAAPLPRTRPPMTSSTQPQNTAPPEAPPHRYSESQRTTPTTRSPRSDACCTPCAIGPPGIFTMGPGAAAAASAPSASPPSSAPTQKSKTSAGITCGDITLKSIAEEVLNYKLSYRAVGVLLFLTLLCGLLDQSNLLTWLIAKQ	not soluble
MPVNNENLTSVLDARPFELSEEQKSPLFKANLLAELVHHYQCNEMYRKFCQKNKFDPLVFDGEVADIPPIPVHIFKAIGHKLSSVSDDTIKAKLQSSATSGVPSTILLDKVTARRQTRAMARVMQEVLGPKRRPFCIMDIDPTSPNATNLGARIAAVKGYLNFASTSKYFIDADSPSAPLEFLEQKFVEHLNSLASEEPLIIFGFTFVLYHTVFKTLKDKGISFQLPKGSQVIHIGGWKKLESEKVDKITFNRDIASVLGISPDDVVDIYGFTEQMGLNYPDCKAGWKHIHAYSDVIIRDESNLEVCGPGKVGLLEFVSPLPHSYPGNVVLTDDLGVIEESLCECGKAGKRFKVIGRAKKAEVRGCGDVMSEKLTKKPSYKPLSQQEERLTIYHSPIFLDDTMLEHHHHHH	soluble
MPKKEKMAKTPLSDEKQLLLFQQKLLAEEEMAKKKERLLSQFLKDKLAKEEHNSALNLNKINTQWRTVLREVKTRELHKDIEILSQTFERVVDCKDNVIKSLAKDLSEAEEQYAHALRSHLHNVDQLLALQRHRLSLLEESYNMELEALTKEFETERKTIIDQHEKEIHYLQDIFMAMEQNYIDSEYESKLEFQSMWNDLKNMNLEEKHFLRLHLENRVEDLWRKFQDVLKNYTDATEDRKAAFETLQVKDEKSSKEIEVQMKKIQKLQDAITISKGKIMIHSRESEDENRYIRNDKELVLVQLRKLKAQRTQARAASQKNLVRLTLESNATLKALRKIVDKGEKILKLAEICRKFETEEEKVLPFYSSVLTPKEQEGIQKNNLEELTEELTKVMVDYIGMENFWKRYNKVKLEQLSLQHRRAQLLDINGKLREMLKQYLDGISVSDEVLSQLNPLFIVNYQSNLLQPLSIRIAHPGDKQHPTT	soluble
MSLTSYALLHTQRVTAKNGEVFTISPDLWERNQQQQSLLLRYFALPLKEENNRLWLGVDSLSNLSACETIAFITGKPVEPILLESSQLKELLQQLTPNQMQVEEQVEGHHHHHH	soluble
MSEVVKKFMYLNRKAPYGTIYAWEALEVVLIGAAFDQDVCVLFLDDGVYQLTRGQDTKGIGMKNFSPTYRTLGDYEVRRIYVDRDSLEARGLTQDDLVEIAFEDMETEEEFDNIVEVIDSARVSELMNESDAVFSF	soluble
VEGLNPLIPQKSNRGVIDVAIFREYVSGGKDRAAEDRRRHRELVEESIKKNIGNIIAEESIIGQSKDKKIKIPIRSIKEYQFVYGKNGPSVGSGDGTEKRGEKIGEEKTANGGQGVGQAGNQEGEEIYETEITIEELINYLFDDLNLPDIDKKRIAEQESIRSYKNLGYQRKGIPPRLAKKRSVIEKIKRKQAYLRNSRELGDLDESAEEDIAAQETLDGVRKRFPFSEDDLRYRRVREDRKKDFNAVVICIMDVSGSMDQTKKYLARSFYFLLYQFIRLKYANVDVVFIAHTTTAKEVSEDEFFHRGESGGTYISSGYEKALEIIEQRYNPNSWNIYAFHCSDGDNWSEDNKKAVELGLKLCDVCNLFGYGEIVPGYYSTGSTIKDEFQKSIKRDNFSVITITNKDDVLPGLKKLLEKEGE	soluble
MHNLVPAPKQTQSVLIKNATVHTVIQGVLTNTDVLIENGKISALGPQLSTNTTASTQVVDASGKHLYPGLIALDTSLGLEHHHHHH	not soluble
MGSDKIHHHHHHMKLDPKLAQDIVNKMMTQIPYNVNMMDDQGYIIASGDPQRLNTLHVGAVAAINQQTTLPMHDSYGDHGQPGVNMPIVFNDQIIGVIGITGDPEKVTPLASLLRVATELLLDQNQHNLQEKQYETTLNRFLYHWSQVTQQIDTNTNLLLEAQQLGIDILKPRAAIVLPKQTLPIGLLDATDFQFDLDTTTLIVLTALPATIARFTTYCQTGQHRLGIGLFDRNVGNSVRQARQTLRISQIFQRPDFIHYSQIAFIQALLDGHLHVTDLQQRFQKLASTANGRELIKTLGMFVRLNTNVLQTAAALHIHRNTLSYRLDRLQQIFQLDPHQTLDLFTLYVGYLYFKADK	not soluble
MSLKLFGTDGVRGKAGEFLDSFLAMRLAMAAGIYFKDKSITNNILVGKDTRRSGYMIENAIVSGLTSIGYNVIQIGPMPTPAIAFLTEDMRCDAGIMISASHNPYYDNGIKFFDAHGNKLSEDIEKKIEEIYFDDKLIQASKVDMEKIGQAKRIDDVIGRYIVSIKNSFPKDLTLKSLRVVLDVAHGAAYKVAPTVFKELGAEVIVMSDKPNGLNINENCGALHPANLAAEVKRLRADVGFAFDGDADRLVVVDEKGEVANGDSLLGVLALYLKEQGKLQSSVVATIMSNGALKEFLNKHGIELDTCNVGDKYVLEKLKANGGNFGGEQSGHIIFSDYAKTGDGLIAALQFSALMLSKKKSASSILGQVKPYPQLLTNLKIAEKKDLDKIKGLKELKKDLENKNINTLFRYSGTENLIRLLLEARDIKLLEKEMKNVVEFFKKALNGEGHHHHHH	not soluble
MCDTLILRHQGQTWFAKNSDREPAEPQRLLRLPAVRNDPEARLRTTYLDIPQTAQRHALVISQPSWIWGAEMGVNEHGVAIGNEAVFTKLTRQRGTALLGMDLLRLGLERGASAREALEVITGLLQRYGQGGPAGYRDKRIRYDNSFLIADPGEAWVLETAGNLWAAKKVERWAISNALTLGHEFDLCSRDLEDQARRQGCWDGRGDFHFARVFDTRLLPWVGGAHRRCRINQRFLDSLPGEPDWHALFAALRHHGPRGDHFRRHNNRQVCMHAGSFWRPSQTTASLVARLRDDGPLLAATGTSAPCLGLFQPLSFDPASGAAVLSQPREAVQESPWWRFEAVHRRALTDRAFRRLLRSGRDWLERELFADLEQPDWPRLAEDAAAWHACWHDQVAMQPLAQQRWWRSHAALAAALEHHHHHH	not soluble
GGVDRWPEYYPETGRDIWIDSVMRQEYLWYRDMPSPAAPDYFQKPEAFLKKAVASMDNGFSKIDSLLDEPIPSYGFDYTLYKVLDNDTAYNALISYVVPGSPAEEAGLQRGHWIMMMNGDYITKKVESELLQGSTRQLQIGVYKEVVGEDGEVTGGVVPIGETTMPASRSLVDKPVHRFEIIPWNGKKVGYLMYNEFKAGPTTDSQAYNDDLRRAFRDFQTGGVNEFVLDLRYNTGGSLDCAQLLCTMLAPADKMNQLLALLRYSDKRVEANQDLTFNPELIQSGANLNLSTVYVLTTNATRGAAEMVINCLNPYMKVVLIGTKTAGEYVATKPFVHPTDRFILNLVVCNVYNAEEKSDYATGFKPTYEYNEDSYLSTYLPFGNTNETLLNAALKIMSGITDK	soluble
VANKIKLGHVHLSGCTGCLVSTADNNLGFIKILDNYADLVYSLTLADVRHVPEMDVALVEGSVCIQDHESVEEIRETREKAKIVVALGSCACYGNITRFSRGGQHNQPQHESFLPIGDLIDVDVYIPGCPPSPELIRNVAVMAYMLLEGDEDQKALAGRYLKPLMD	not soluble
SPRKESPLRTAVDAAALTTSDIARQLEVKVQRMNTAHEREANAISSFQQAYGIASAHLDRLLLRIPELPLPEIDDRDVDGGRVRGTFASLQRHHQALDDAISAMHQASEKVYTIPGKQATQEQDPALAQLLSVEKRRRSLGHALETLAGRGVEAGTATGLELNRVSSQVNDLVARRDALLRQRESGVQEGGLDSEELEMELQLTTSVLQRLRADLLGERQAMEATAKRLDQASRAALEGERSFSDAVRDRAWGELDNV	not soluble
MPDIFQQEARGWLRCGAPPFAGAVAGLTTKHGGESKGPFASLNMGLHVGDDRTDVVNNRRRLAEWLAFPLERWVCCEQVHGADIQKVTKSDRGNGAQDFATAVPGVDGLYTDEAGVLLALCFADCVPIYFVAPSAGLVGLAHAGWRGTAGGIAGHMVWLWQTREHIAPSDIYVAIGPAIGPCCYTVDDRVVDSLRPTLPPESPLPWRETSPGQYALDLKEANRLQLLAAGVPNSHIYVSERCTSCEEALFFSHRRDRGTTGRMLAFIGRREEWT	soluble
AEFFPEIPKVQFEGKESTNPLAFKFYDPEEIIDGKPLKDHLKFSVAFWHTFVNEGRDPFGDPTADRPWNRYTDPMDKAFARVDALFEFCEKLNIEYFCFHDRDIAPEGKTLRETNKILDKVVERIKERMKDSNVKLLWGTANLFSHPRYMHGAATTCSADVFAYAAAQVKKALEITKELGGEGYVFWGGREGYETLLNTDLGFELENLARFLRMAVDYAKRIGFTGQFLIEPKPKEPTKHQYDFDVATAYAFLKSHGLDEYFKFNIEANHATLAGHTFQHELRMARILGKLGSIDANQGDLLLGWDTDQFPTNVYDTTLAMYEVIKAGGFTKGGLNFDAKVRRASYKVEDLFIGHIAGMDTFALGFKVAYKLVKDGVLDKFIEEKYRSFREGIGRDIVEGKVDFEKLEEYIIDKETIELPSGKQEYLESLINSYIVKTILELR	soluble
MGSDKIHHHHHHMMFGKSCQVMVKPTGSVCNLDCKYCFYLEKEKLYPDRKNHYKMSEETLELFIRQQIAAQDIDEVIFAWQGGEPTLMGIPFYRKAVEFQQRYCGGKTIVNTFQTNGILINDDWATFFREHDFLVGVSIDGDAALHDEWRVTRSGKPTHEKVENAVRCLAQHDVEFNTLTVVNRTNMHHPVQVYRYLKSIGSRYMQFIPLVERCGENGLAQPQDKHIAMTPWSVDSLQFGQFLNAVFDIWIREDIGDIGIQLFEQTLAAWCGLPPQVCVFAPTCGSAFAMEMNGDVYNCDHFVYPQFKLGNIHQKTLRQMNQGEQNRQFGSDKQRSMAQECHRCQWKFACYGGCPKHRFLPSASGATNHNYLCAGYQAFFSHTATAMSAMRTLYEKGISPAEIKSIFV	not soluble

— the DeepSol protein solubility set
